Data set [1] addresses T1, ParA (Caulobacter vibrioides, UniProt B8GW31, R195E).
T1 construct: full length, recombinant from E. coli BL21(DE3), pET24HT-ParA, His6 tag removed by TEV protease
In words: size exclusion chromatography (ATP-dependent dimerization). It counts as binding. Conditions: 2.5 mM Mg-ATP, pH 7.5, 150 mM potassium glutamate; mutant does not bind DNA. For orientation: In gel filtration, larger molecules generally elute earlier.

Data set [2] deals with Caulobacter crescentus ParA (wild type) (C. crescentus). In words: SEC; +ATP: ParA freed of ATP (EDTA, buffer exchange), then mixed with 2.5 mM Mg-ATP, 10 min at room temperature; 50 µl at approximately 50 µM on Superdex 75 10/300 GL in 25 mM Hepes/KOH pH 7.5, 150 mM KGlu, 5 mM MgSO4, 2 mM Mg-ATP, 0.1 mM EDTA, 1 mM DTT; monomer to dimer.
The target of data set [3] is Caulobacter crescentus ParA R195E (DNA-binding deficient mutant) (C. crescentus). Described as above.
Data set [4] has as its target Caulobacter crescentus ParA (wild type) (C. crescentus).
Data set [5] has the same target. This is another data set of the same source.
Data set [6] concerns the target Caulobacter crescentus ParB-His6 (wild type) (C. crescentus). In words: SEC-MALS; SEC-UV/LS/RI; purified His6-ParB on Superose 6 10/30 HR in 100 mM HEPES pH 7.4, 150 mM NaCl, 1 mM DTT, 0.3 ml/min; monomer to dimer.
Substrate in data set [7]: Nc1ncnc2c1ncn2[C@@H]1O[C@H](COP(=O)(O)OP(=O)(O)OP(=O)(O)O)[C@@H](O)[C@H]1O
The data set can be described thus: NADH-coupled ATPase assay (pyruvate kinase/lactate dehydrogenase). Conditions: 10 µM ParA, 1.5 mg/ml salmon sperm DNA, no ParB, 10 mM MgSO4, 150 mM potassium glutamate, pH 7.4, 30 °C. The data set is classed as biochemical, Caulobacter vibrioides. The text has this:
NADH-coupled ATPase assay (pyruvate kinase/lactate dehydrogenase) on ParA | ATPase activity was dependent on the concentration of ATP (Figure 1E), resulting in a KM

From paper PMC4067530, “Evidence for a DNA-relay mechanism in ParABS-mediated chromosome segregation” (eLife, 2014) come the findings set out here.

Broadly, the stoichiometry N is a count of units in the complex or per binding partner. As usually defined, the Km is the substrate concentration at which the rate is half of its maximum. As usually defined, the kcat is the number of substrate molecules converted per active site and unit of time at saturation.

T1 sequence (B8GW31 whole entry R195E): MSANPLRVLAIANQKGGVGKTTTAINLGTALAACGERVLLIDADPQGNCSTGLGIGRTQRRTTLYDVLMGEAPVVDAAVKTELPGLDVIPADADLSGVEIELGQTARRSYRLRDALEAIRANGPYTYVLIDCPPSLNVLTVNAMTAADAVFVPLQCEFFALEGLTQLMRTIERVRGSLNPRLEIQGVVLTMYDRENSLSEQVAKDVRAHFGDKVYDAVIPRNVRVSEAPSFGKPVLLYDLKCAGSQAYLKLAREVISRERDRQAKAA

`Nc1ncnc2c1ncn2[C@@H]1O[C@H](COP(=O)(O)OP(=O)(O)OP(=O)(O)O)[C@@H](O)[C@H]1O` [ATP]: the “size exclusion chromatography (ATP-dependent dimerization)” value in data set [1] is reported as “ParAR195E mutant (Figure 1C), which can still dimerize upon ATP binding (Figure 1A)”.

“Caulobacter crescentus ParA (wild type) (enzyme)” came in with a stoichiometry N in data set [2] of 2.

“Caulobacter crescentus ParA R195E (DNA-binding deficient mutant) (enzyme)”: the stoichiometry N in data set [3] worked out at 2.

For “Caulobacter crescentus ParB-His6 (wild type) (natural protein)”, the ParA (3 µM) ATPase activity against ParB concentration in the presence of DNA, Michaelis–Menten fit: apparent K (ParB) in data set [4] worked out at 80 µM. This molecule also came in with a ParA ATPase activity (NADH-coupled assay) with DNA, increase on adding ParB (60 µM) in data set [5] of 10 fold. The molecule further showed a stoichiometry N in data set [6] of 2.

B1: ParA (Caulobacter vibrioides NA1000) (protein)
chain: MSANPLRVLAIANQKGGVGKTTTAINLGTALAACGERVLLIDADPQGNCSTGLGIGRTQRRTTLYDVLMGEAPVVDAAVKTELPGLDVIPADADLSGVEIELGQTARRSYRLRDALEAIRANGPYTYVLIDCPPSLNVLTVNAMTAADAVFVPLQCEFFALEGLTQLMRTIERVRGSLNPRLEIQGVVLTMYDRRNSLSEQVAKDVRAHFGDKVYDAVIPRNVRVSEAPSFGKPVLLYDLKCAGSQAYLKLAREVISRERDRQAKAA
notes: full length, recombinant from E. coli BL21(DE3), pET24HT-ParA, His6 tag removed by TEV protease
In the case of B1, in data set [7], the Km came out at 150 µM and the kcat came to 0.00164 s⁻¹.
